{
  "source": "paper PMC12451656",
  "about": "“HMGB1 B‑Box Domain Associates Promote Protein–Polyelectrolyte Interactions” (The Journal of Physical Chemistry. B, 2025)",
  "proteins": {"B1": {"name": "HMGB1 B-box domain (domain or fragment, human)", "chain": "MARIDPNAPKRPPSAFFLFCSEYRPKIKGEHPGLSIGDVAKKLGEMWNNTAADDKQPYEKKAAKLKEKYEKDIAAYRAKGKPDAAKKGVV", "notes": "initiator methionine followed by the triplet alanine-arginine-isoleucine (ARI), inserted through the forward primer for better expression; HMGB1 (high mobility group box 1), human, B-box domain, cloned from the human HMGB1 cDNA; Numbers count on: the construct (Cys19 = Cys106 of full-length HMGB1; Trp46); By the reverse primer, the XhoI site adds LE between V176 and the SGS-His8 tag; The DLS …"}},
  "molecular_target": "the molecule itself",
  "experiment": "dynamic light scattering; as-prepared, unfiltered B-box, 30 μM, 25 mM Tris-HCl pH 6.9, 150 mM NaCl, 25 °C, backscattering mode; the retentate of the 30 kDa filter was also measured (Figure S6)",
  "data": [
    {"protein": "B1", "values": [
      {"measurement": "stoichiometry N", "result": "~8"}
    ]}
  ]
}
